The results in this text go back to US20230295751, “Biological Detection Sensor Chip and COVID-19 Test Kit” (published 2023).

The subject of data set [1] is Negative control virus without spike protein. Briefly: SPR. The note with it: 5'-NH2 with 12C spacer.
Data set [2] addresses Bovine serum albumin (BSA) (Bos taurus, UniProt P02769 P02769:25-607). Nature of the data set: SPR. In general terms: In SPR one partner is held on a chip, and binding of the other changes the refractive index at the surface.

Chain of Bovine serum albumin (BSA) (P02769 25-607, one chain of several): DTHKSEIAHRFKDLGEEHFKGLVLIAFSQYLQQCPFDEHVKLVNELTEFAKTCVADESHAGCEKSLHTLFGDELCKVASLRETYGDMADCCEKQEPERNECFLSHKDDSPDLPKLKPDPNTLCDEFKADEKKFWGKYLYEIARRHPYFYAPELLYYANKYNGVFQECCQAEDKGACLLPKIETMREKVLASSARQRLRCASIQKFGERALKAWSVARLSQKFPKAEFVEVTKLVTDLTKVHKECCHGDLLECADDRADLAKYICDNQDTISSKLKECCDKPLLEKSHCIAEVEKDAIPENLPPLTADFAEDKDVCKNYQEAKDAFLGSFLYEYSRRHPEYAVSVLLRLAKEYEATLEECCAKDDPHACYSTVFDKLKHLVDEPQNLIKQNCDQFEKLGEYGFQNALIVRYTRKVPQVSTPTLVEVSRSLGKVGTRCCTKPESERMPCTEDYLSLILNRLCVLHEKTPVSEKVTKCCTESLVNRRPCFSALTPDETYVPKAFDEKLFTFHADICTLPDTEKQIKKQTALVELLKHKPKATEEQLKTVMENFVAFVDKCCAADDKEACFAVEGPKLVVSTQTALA

As to “CAGCACCGACCTTGTGCTTTGGGAGTGCTGGTCCAAGGGCGTTAATGGACA [Capturing aptamer against SARS-CoV-2 SRBD]”, in data set [1], the binding is 23 RU.

B1: Capturing aptamer against SARS-CoV-2 SRBD (ssDNA)
DNA: CAGCACCGACCTTGTGCTTTGGGAGTGCTGGTCCAAGGGCGTTAATGGACA
modifications: 5'-NH2 with 12C spacer
In the case of B1, the binding result in data set [2] is listed as “no binding”.
